Experimental data taken from patent US20220169682A1 (PARIS SCIENCES ET LETTRES, published 2022).
Values belong to the binder of their own block, whether it stands above or below them.

Target: T1, FKBP-NFAST (UniProt P62942 2-108)
T1 construct: Expressed in HEK293T cells; also called cmyc-FKBP-linker-NFAST; pAG149; not shown: c-myc tag
Assay: split-FAST fluorescence complementation, confocal imaging of HEK293T cells, 100 nM rapamycin, HMBR or HBR-3,5DOM
Protocol: FIG. 5A-B show HEK293T cells co-expressing FKBP-NFAST and FRB-CFASTn (n=10 or 11) which were labeled with 5 μM HMBR (FIG. 5A) or 10 μM HBR-3,5DOM (FIG. 5B) and imaged before and after addition of 100 nM rapamycin. Scale bars 10 μm. […] Cells expressing FAST were used as control. HMBR concentration was 10 μM. Excitation at 488 nm at 6.3 kW/cm2. Six cells were analyzed per condition. […] Scale bars 20 μm. […] Scale bars 20 μm.

T1 sequence (P62942 other isoform, or with tags, fused parts or gaps): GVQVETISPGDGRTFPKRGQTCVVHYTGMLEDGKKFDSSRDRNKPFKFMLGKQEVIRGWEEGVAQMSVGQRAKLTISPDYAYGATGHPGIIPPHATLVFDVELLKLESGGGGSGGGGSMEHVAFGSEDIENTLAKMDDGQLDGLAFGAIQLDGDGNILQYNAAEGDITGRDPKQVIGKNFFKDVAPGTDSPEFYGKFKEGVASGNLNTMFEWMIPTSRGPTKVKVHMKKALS

binding result: binds
B1: FRB-CFAST10 (other)
chain: ILWHEMWHEGLEEASRLYFGERNVKGMFEVLEPLHAMMERGPQTLKETSFNQAYGRDLMEAQEWCRKYMKSGNVKDLTQAWDLYYHVFRRISKSGGGGSGGGGSGDSYWVFVKR
notes: also called FRB-CFASTn (n=10)

binding result: binds
B2: FRB-CFAST11 (other)
chain: ILWHEMWHEGLEEASRLYFGERNVKGMFEVLEPLHAMMERGPQTLKETSFNQAYGRDLMEAQEWCRKYMKSGNVKDLTQAWDLYYHVFRRISKSGGGGSGGGGSGDSYWVFVKRV
notes: Expressed in HEK293T cells; also called cmyc-FRB-linker-CFAST(115-125); pAG152; not shown: c-myc tag
